# Where two headings read alike, the source gives them in different places.
# What was measured:
# [1] = target: CRF receptors on rat anterior pituitary cells (rat)
# [2] = target: CRF receptors on rat anterior pituitary cells (rat); remark: listed apart in the source
# [3] = target: CRF receptors on rat anterior pituitary cells (rat); remark: listed apart in the source
# [4] = target: CRF receptors on rat anterior pituitary cells (rat); remark: listed apart in the source
# [5] = target: CRF receptors on rat anterior pituitary cells (rat); remark: listed apart in the source
# [6] = target: CRF receptors on rat anterior pituitary cells (rat); remark: listed apart in the source
# [7] = target: CRF receptors on rat anterior pituitary cells (rat); remark: listed apart in the source
# [8] = target: CRF receptors on rat anterior pituitary cells (rat); remark: listed apart in the source
# [9] = target: CRF receptors on rat anterior pituitary cells (rat); remark: listed apart in the source
# [10] = target: CRF receptors on rat anterior pituitary cells (rat); remark: listed apart in the source
# [11] = target: CRF receptors on rat anterior pituitary cells (rat); remark: listed apart in the source
# [12] = target: CRF receptors on rat anterior pituitary cells (rat); remark: listed apart in the source
# [13] = target: CRF receptors on rat anterior pituitary cells (rat); remark: listed apart in the source
# [14] = target: CRF receptors on rat anterior pituitary cells (rat); remark: listed apart in the source
# [15] = target: CRF receptors on rat anterior pituitary cells (rat); remark: listed apart in the source
# [16] = target: CRF receptors on rat anterior pituitary cells (rat); remark: listed apart in the source
# hCRF-RA1 (human) = hCRF-RA1 (human) (UniProt P34998); experiment: radioligand binding assay
# [17] = target: CRF receptors on rat anterior pituitary cells (rat); remark: listed apart in the source
# [18] = target: CRF receptors on rat anterior pituitary cells (rat); remark: listed apart in the source
# [19] = target: CRF receptors on rat anterior pituitary cells (rat); remark: listed apart in the source
# [20] = target: CRF receptors on rat anterior pituitary cells (rat); remark: listed apart in the source
# [21] = target: CRF receptors on rat anterior pituitary cells (rat); remark: listed apart in the source
# [22] = target: CRF receptors on rat anterior pituitary cells (rat); remark: listed apart in the source
# [23] = target: CRF receptors on rat anterior pituitary cells (rat); remark: listed apart in the source
# [24] = target: CRF receptors on rat anterior pituitary cells (rat); remark: listed apart in the source
# [25] = target: CRF receptors on rat anterior pituitary cells (rat); remark: listed apart in the source
# [26] = target: CRF receptors on rat anterior pituitary cells (rat); remark: listed apart in the source
# CRF-RA = experiment: binding assay
# [27] = target: CRF receptors on rat anterior pituitary cells (rat); remark: listed apart in the source
# [28] = target: CRF receptors on rat anterior pituitary cells (rat); remark: listed apart in the source
# [29] = target: CRF receptors on rat anterior pituitary cells (rat); remark: listed apart in the source
# [30] = target: CRF receptors on rat anterior pituitary cells (rat); remark: listed apart in the source
# [31] = target: CRF receptors on rat anterior pituitary cells (rat); remark: listed apart in the source
# [32] = target: CRF receptors on rat anterior pituitary cells (rat); remark: listed apart in the source
# [33] = target: CRF receptors on rat anterior pituitary cells (rat); remark: listed apart in the source
# [34] = target: CRF receptors on rat anterior pituitary cells (rat); remark: listed apart in the source
# [35] = target: CRF receptors on rat anterior pituitary cells (rat); remark: listed apart in the source
# [36] = target: CRF receptors on rat anterior pituitary cells (rat); remark: listed apart in the source
# [37] = target: CRF receptors on rat anterior pituitary cells (rat); remark: listed apart in the source
# [38] = target: CRF receptors on rat anterior pituitary cells (rat); remark: listed apart in the source
# [39] = target: CRF receptors on rat anterior pituitary cells (rat); remark: listed apart in the source
# [40] = target: CRF receptors on rat anterior pituitary cells (rat); remark: listed apart in the source
# [41] = target: CRF receptors on rat anterior pituitary cells (rat); remark: listed apart in the source
# [42] = target: CRF receptors on rat anterior pituitary cells (rat); remark: listed apart in the source
substance,measurement,setting,value
"(cyclo 30-33) D-Phe^12, CML^15, Nle^21,38, Glu^30, D-His^32, Lys^33 !-r/hCRF(12-41) (peptide)",in vitro biopotency: inhibition of ACTH secretion (times the Standard),[1],20.3
"(cyclo 30-33) Ac-Asp^9, D-Phe^12, Nle^21,38, Glu^30, Lys^33 !-r/hCRF(9-41) (peptide)",in vitro biopotency: inhibition of ACTH secretion (times the Standard),[2],172
"(cyclo 30-33) D-Tyr^12, Glu^13, Lys^17,33, Nle^21,38, Glu^30, Asn^32, Arg^36 !-r/hCRF(12-41) (peptide)",in vitro biopotency: inhibition of ACTH secretion (times the Standard),[3],49
"(cyclo 30-33) D-Tyr^12, Nle^21,38, Glu^30, Asn^32, Lys^33, Arg^36 !-r/hCRF (12-41) (peptide)",in vitro biopotency: inhibition of ACTH secretion (times the Standard),[4],79
"(cyclo 30-33) D-Phe^12, Nle^21,38, Glu^30, D-His^32, Lys^33 !-r/hCRF(11-41) (peptide)",in vitro biopotency: inhibition of ACTH secretion (times Peptide IV),[5],0.78
"(cyclo 29-32) D-Leu^11, Nle^17, Glu^29, Lys^32 !-sauvagine(11-40) (peptide)",in vitro biopotency: inhibition of ACTH secretion (times the Standard),[6],22
"(cyclo 30-33) D-Phe^12, Nle^21,38, Glu^30, D-2Nal^32, Lys^33 !-r/hCRF(12-41) (peptide)",in vitro biopotency: inhibition of ACTH secretion (times the Standard),[7],18
"(bicyclo 20-23, 30-33) D-Phe^12, Nle^21,38, D-Ala^22, LyS^23,33, Glu^30, D-His^32 !-r/hCRF(12-41) (peptide)",in vitro biopotency: inhibition of ACTH secretion (times the Standard),[8],8.61
"(cyclo 30-33) D-Phe^12, CML^19, Nle^21,38, Glu^30, D-His^32, Lys^33 !-r/hCRF(12-41) (peptide)",in vitro biopotency: inhibition of ACTH secretion (times the Standard),[9],4.5
"(cyclo 30-33) D-Phe^12, Nle^21,38, CML^27, Glu^30, D-His^32, Lys^33 !-r/hCRF(11-41) (peptide)",in vitro biopotency: inhibition of ACTH secretion (times Peptide IV),[10],1.26
"(cyclo 30-33) Ac-Asp^9, D-Phe^12, Nle^21,38, CML^27, Glu^30, Lys^33 !-r/hCRF(9-41) (peptide)",in vitro biopotency: inhibition of ACTH secretion (times Peptide IV),[11],1.2
"(cyclo 30-33) Ac-D-Phe^12, Nle^21,38, CML^27, Glu^30, D-His^32, Lys^33 !-r/hCRF(12-41) (peptide)",in vitro biopotency: inhibition of ACTH secretion (times the Standard),[12],43
"(cyclo 30-33) Ac-Thr^11, D-Phe^12, Nle^21,38, Glu^30, D-His^32, Lys^33 !-r/hCRF(11-41) (peptide)",in vitro biopotency: inhibition of ACTH secretion (times Peptide IV),[13],3.08
"(cyclo 29-33) D-Phe^12, Nle^21,38, Glu^29, D-His^32, Lys^33 -r/hCRF(12-41) (peptide)",in vitro biopotency: inhibition of ACTH secretion (times the Standard),[14],26
"(cyclo 30-33) Ac-D-Phe^12, Nle^21,38, Glu^30, Lys^33 !-r/hCRF(12-41) (peptide)",in vitro biopotency: inhibition of ACTH secretion (times the Standard),[2],36.5
"(cyclo 30-33) D-Phe^12, CML^15, Nle^21,38, Glu^30, imBzlD-His^32, Lys^33 !-r/hCRF (12-41) (peptide)",in vitro biopotency: inhibition of ACTH secretion (times the Standard),[15],23.5
"(cyclo 30-33) Ac-Leu^10, D-Phe^12, Nle^21,38, Glu^30, Lys^33 !-r/hCRF(10-41) (peptide)",in vitro biopotency: inhibition of ACTH secretion (times the Standard),[2],34
"(cyclo 30-33) Ac-Asp^9, D-Phe^2, Nle^21,38, CML^27, Glu^30, D-His^32, Lys^33 -r/hCRF(9-41) (peptide)",in vitro biopotency: inhibition of ACTH secretion (times Peptide IV),[16],2.22
"(cyclo 30-33) I^125 -D-Tyr^12, Glu^30, Lys^33, Nle^21,38 !-r/hCRF(12-41) (peptide)",Kd,hCRF-RA1 (human),2 nM
"(cyclo 30-33) D-Phe^12, Nle^21,38, CML^27, Glu^30, D-His^32, Lys^33 !-r/hCRF(12-41) (peptide)",in vitro biopotency: inhibition of ACTH secretion (times the Standard),[17],53.6
"(cyclo 30-33) Ac-Thr^11, D-Phe^12, CML^18,27, Nle^21,38, Glu^30, D-His^32, Lys^33 !-r/hCRF(11-41) (peptide)",in vitro biopotency: inhibition of ACTH secretion (times Peptide IV),[18],1.94
"(cyclo 30-33) D-Phe^12, CML^14, Nle^21,38, Glu^30, D-His^32, Lys^33 !-r/hCRF(12-41) (peptide)",in vitro biopotency: inhibition of ACTH secretion (times the Standard),[19],15
"(cyclo 30-33) D-Phe^12, Nle^21,38, Glu^30, Lys^33 !-r/hCRF(10-41) (peptide)",in vitro biopotency: inhibition of ACTH secretion (times the Standard),[20],31.6
"(cyclo 30-33) D-Phe^12, Nle^21,38, Glu^30, Lys^33 !-r/hCRF(9-41) (peptide)",in vitro biopotency: inhibition of ACTH secretion (times the Standard),[21],33.8
"(cyclo 30-33) D-Phe^12, Nle^21,38, Glu^30, D-Glu^32, Lys^33 !-r/hCRF(12-41) (peptide)",in vitro biopotency: inhibition of ACTH secretion (times the Standard),[22],10
"(cyclo 29-33) D-Phe^12, Nle^21,38, Glu^29, Lys^33 -r/hCRF(12-41) (peptide)",in vitro biopotency: inhibition of ACTH secretion (times the Standard),[23],7.15
"(cyclo 30-33) D-Phe^12, Nle^21,38, Glu^30, D-His^32, Lys^33, CML^37 !-r/hCRF(12-41) (peptide)",in vitro biopotency: inhibition of ACTH secretion (times the Standard),[24],16
"(cyclo 30-33) Ac-D-Phe^12, Nle^21,38, CML^27, Glu^30, Lys^33 !-r/hCRF(12-41) (peptide)",in vitro biopotency: inhibition of ACTH secretion (times Peptide IV),[25],1.65
"(cyclo 30-33) Ac-Thr^11, D-Phe^12, Nle^21,38, CML^27, Glu^30, D-His^32, Lys^33 !-r/hCRF(11-41) (peptide)",in vitro biopotency: inhibition of ACTH secretion (times Peptide IV),[26],1.4
"(cyclo 30-33) D-Tyr^12, Nle^21,38, Glu^30, Lys^33 !-r/hCRF(12-41) (peptide)",Kd,CRF-RA,2 nM
same,in vitro biopotency: inhibition of ACTH secretion (times the Standard),[27],5.6
"(cyclo 28-32) D-Phe^12, Nle^21,38, Glu^28, Lys^32 !-r/hCRF(12-41) (peptide)",in vitro biopotency: inhibition of ACTH secretion (times the Standard),[28],7.3
"(cyclo 30-33) D-Phe^12, Nle^21,38, Glu^30, D-His^32, Lys^33 !-r/hCRF(12-41) (peptide)",in vitro biopotency: inhibition of ACTH secretion (times the Standard),[29],80.3
"(cyclo 30-33) Ac-Thr^11, D-Phe^12, CML^15,27, Nle^21,38, Glu^30, D-His^32, Lys^33 -r/hCRF(11-41) (peptide)",in vitro biopotency: inhibition of ACTH secretion (times Peptide IV),[30],1.11
"(cyclo 30-33) D-Phe^12, Nle^21,38, Glu^30, Lys^33 !-r/hCRF(11-41) (peptide)",in vitro biopotency: inhibition of ACTH secretion (times the Standard),[31],40.3
"(cyclo 28-32) D-Phe^12, Nle^21,38, Glu^28, D-Gln^30, Lys^32 !-r/hCRF(12-41) (peptide)",in vitro biopotency: inhibition of ACTH secretion (times the Standard),[32],3.69
"(cyclo 30-33) Ac-Asp^9, D-Phe^12, Nle^21, CML^27,37, Glu^30, Lys^33 -r/hCRF(9-41) (peptide)",in vitro biopotency: inhibition of ACTH secretion (times the Standard),[33],1.4
"(cyclo 30-33) Ac-Asp^9, D-Phe^12, CML^18,27, Nle^21,38, Glu^30, Lys^33 -r/hCRF(9-41) (peptide)",in vitro biopotency: inhibition of ACTH secretion (times the Standard),[34],13
"(cyclo 30-33) D-Phe^12, Nle^18,21, Glu^30, D-Ala^32, Lys^33 !-Carp Urotensin I (12-41) (peptide)",in vitro biopotency: inhibition of ACTH secretion (times Peptide IV),[35],0.831
"(cyclo 29-32) D-Leu^11, Nle^17, Glu^29, D-Ala^31, Lys^32 !-Sauvagine (11-40) (peptide)",in vitro biopotency: inhibition of ACTH secretion (times the Standard),[36],15
"(cyclo 30-33) D-Phe^12, Nle^21,38, Glu^30, D-Arg^32, Lys^33 !-r/hCRF(12-41) (peptide)",in vitro biopotency: inhibition of ACTH secretion (times the Standard),[37],60
"(bicyclo 20-23, 30-33) D-Phe^12, Nle^21,38, Lys^23,33, Glu^30 !-r/hCRF(12-41) (peptide)",in vitro biopotency: inhibition of ACTH secretion (times the Standard),[38],8.3
"(cyclo 30-33) Ac-D-Phe^12, Nle^21,38, Glu^30, D-His^32, Lys^33 !-r/hCRF(12-41) (peptide)",in vitro biopotency: inhibition of ACTH secretion (times Peptide IV),[39],1.24
"(cyclo 30-33) Ac-Thr^11, D-Phe^12, Nle^21,38, Glu^30, Lys^33 !-r/hCRF(11-41) (peptide)",in vitro biopotency: inhibition of ACTH secretion (times the Standard),[2],64
"(cyclo 30-33) D-Phe^12, Nle^21,38, Glu^30, Lys^33 !-r/hCRF(12-41) (peptide)",intrinsic CRF activity,[40],< 3%
same,in vitro biopotency: inhibition of ACTH secretion (times the Standard),[41],33
"(cyclo 30-33) D-Phe^12, Nle^18,21, Glu^30, Lys^33 !-Sucker Urotensin I(12-41) (peptide)",in vitro biopotency: inhibition of ACTH secretion (times Peptide IV),[42],1.32
